According to patent US20230138047A1, “ANTI-CLAUDIN-1 MONOCLONAL ANTIBODIES FOR THE PREVENTION AND TREATMENT OF FIBROTIC DISEASES” (Université de Strasbourg, priority 2019, published 2023):

Experiments:
[1] = biological target: T1, CLDN1 expressed on A549 cells (Homo sapiens, UniProt O95832); assay: Flow cytometry binding study on A549 lung cells; parameters: unit not given here
T1 construct: endogenous in cells; host or cells: A549
T1 sequence (O95832 1-211): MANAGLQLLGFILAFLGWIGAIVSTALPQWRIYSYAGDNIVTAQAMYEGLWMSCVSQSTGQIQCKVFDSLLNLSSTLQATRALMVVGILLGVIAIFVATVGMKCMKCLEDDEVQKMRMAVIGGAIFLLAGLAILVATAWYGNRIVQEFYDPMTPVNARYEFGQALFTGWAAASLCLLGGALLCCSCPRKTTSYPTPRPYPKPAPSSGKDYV
Protocol: (§1) Cell Lines. The kidney cancer cell line RPTEC/TERT1 and lung cancer cell line A549, both originally from ATCC, were obtained from IGBMC in a collaboration with Dr. Irwin Davidson and Dr. Izabella Sumara, respectively. Both cell lines were cultured according to provider's instructions: the RPTEC/TERT1 kidney cancer cells were grown in ATCC-formulated DMEM:F12 Medium supplemented with hTERT RPTEC Growth Kit and 0.1 mg/mL G418. The A549 lung cancer cells were grown in ATCC-formulated F-12K Medium supplemented with 10% fetal bovine serum.
(§2) Binding Studies. Cells were de-attached using a solution of EDTA (4 mM) and re-suspended in PBS containing 1% FBS at 4° C. Then, 150,000 cells were incubated with increasing concentrations of the humanized H3L3 CLDN1-specific mAb (see WO/2017/162678) and the binding signals were read by flow cytometry after incubation with PE-labelled anti-human using a dilution of 1:100 and analyzed with Cytoflex and FlowJo V10. Two washes with PBS containing 1% FBS were performed after every antibody incubation. A binding curve for each cell line was built using the PE median fluorescence intensity (MFI) and the Kd of the interaction was calculated by applying the Michaelis-Menten mathematical model in R 3.5.1.

[2] = test system: TGF-β signalling; assay: TGF-β signaling reporter assay in A549 cells; assay type: cell-based; settings: 50 μg/mL for 3 hours, TGF-β 10 ng/mL
Protocol: TGF-β Signaling Reporter Assay. A549 cells were transfected with TGF-β signalling reporter plasmid pGLA4.48[luc2P/SBE/Hygro] (Promega) using Fugene according to the manufacturer's instructions. Following transfection, the cells were supplemented with fresh medium containing control or CLDN1-specific mAb (50 μg/mL) for 3 hours at 37° C. Fresh medium was supplemented to the cells containing TGF-β (10 ng/mL) (Sigma) for 3 hours at 37° C. The plate was incubated for 15 minutes at room temperature followed by addition of ONE-Glo substrate (Promega) for 3 minutes at room temperature. Luminescence of the supernatants was read using a Berthold microplate reader.

[3] = test system: Human Renal Epithelial Cells (HREpic); assay: HREpic 3D-culture proliferation/viability (ATP quantification); assay type: cell-based; settings: TNFα 10 ng/mL, 10 μg/mL antibody, 6 days, preliminary data
Protocol: (§3) Cells. Human Renal Epithelial Cells (HREpic) were purchased from ScienCell Research Laboratories and grown in Epithelial Cell Medium according to manufacturer's instructions.
H3L3 Treatment. For 2D-culture, cells were seeded in 24-well plates coated with Poly-L-Lysine at a cell density of 5.10^4 cells/well. After 24 hours, the cells were treated with TNFα 10 ng/mL and Mota (10 μg/mL) or H3L3 (10 μg/mL). After 3 days, the cells were again treated with TNFα and antibody for 3 more days. After 6 days of treatment in total, the cells were lysed to measure gene expression by qRT-PCR. For 3D-culture, cells were seeded in 96-well ultra-low attachment plates (Corning, Sigma Aldrich, France) at a cell density of 5×10^3 cells/well. The same treatment as described above was applied for 6 days. Cell viability was assessed by ATP quantification using CellTitreGlo (Promega) according to manufacturer's instructions.
Statistics. Data are presented as the mean±s.d. and were analyzed by the unpaired Student's t-test or the two-tailed Mann-Whitney test as indicated after determination of distribution by the Shapiro-Wilk normality test. All experiments were performed at least in triplicates for 2D-culture and quadruplicates for 3D-culture. Data are considered as significant at p<0.05. Statistical analyzes for in vitro experiments were performed with GraphPad Prism 6 software.

[4] = test system: Adriamycin-induced nephropathy; assay: Adriamycin-induced nephropathy model; assay type: in vivo, BALB/c mice; settings: 250 μg/mouse i.p. twice weekly, 27 days; versus control group and valproic acid group
Protocol: The Adriamycin-induced nephropathy (ADR) model is a well-characterized disease model for chronic kidney disease and mirrors human kidney disease caused by primary focal segmental glomerulosclerosis (FSGS). The Adriamycin-induced nephropathy is a mouse model the mimics human FSGS (Focal Segmental Glomerulosclerosis). An efficacy study was performed at SMC lab (Tokyo, Japan) in accordance with local standards of ethics and animal care. Induction of Adriamycin-induced nephropathy model started on Day 0, when mice were intravenously administered adriamycin (doxorubicin hydrochloride, Wako Pure Chemical Industries, Ltd., Japan) in 0.9% saline at a dose of 13 mg/kg, in a volume of 10 mL/kg.
Groups of eight Adriamycin-induced nephropathic male BALB/c mice were administered either vehicle [saline], anti-CLDNA 1 mAb H3L3 (250 μg/mouse, twice weekly) intraperitoneally, or VPA (=valproic acid, provided at 0.4% in the drinking water) as a positive control for 27 days. Serum creatinine and BUN (blood urea nitrogen) was measured by FUJI DRI-CHEM 7000 (Fujifilm Corporation, Japan).

[5] = biological target: T2, CLDN1 on HREpic (PECs model) (Homo sapiens, UniProt O95832); assay: Flow cytometry binding on Human Renal Epithelial Cells (HREpic); settings: 10 μg/mL, 24 hours after TNFα 10 ng/mL
T2 construct: Human Renal Epithelial Cells (HREpic), which are primary cell isolated from human kidney; host or cells: HREpic (Human Renal Epithelial Cells), TNFα-treated
T2 sequence (O95832 1-211): T1 sequence (O95832 1-211)
Protocol: as §3
Flow cytometry. H3L3 binding and expression of human CLDN1 in HREpic was analyzed by flow cytometry 24 hours after TNFα treatment (10 ng/mL). Briefly, 200,000 cells per conditions were stained using H3L3 (10 μg/mL) or Mota (10 μg/mL) used as negative control. Primary antibodies were detected using an Alexa fluor 647-conjugated human-specific secondary antibody. Data were acquired using Cytoflex B2R2V0 (Beckman Coulter) and analyzed using CytExpert 2.1 and FlowJo v10. CLDN1 expression is shown as the difference of the mean fluorescence intensities of cells stained with H3L3 and cells stained with Mota.

[6] = biological target: T3, CLDN1 expressed on RPTEC/TERT1 cells (Homo sapiens, UniProt O95832); assay: Flow cytometry binding study on RPTEC/TERT1 kidney cells
T3 construct: endogenous in cells; host or cells: RPTEC/TERT1
T3 sequence (O95832 1-211): T1 sequence (O95832 1-211)
Protocol: as §1, §2

B1: H3L3: humanized anti-Claudin-1 monoclonal antibody, two VH of SEQ ID NO: 3 and two VL of SEQ ID NO: 6 (antibody, V domains shown)
VH: QVQLVESGGGVVQPGRSLRLSCLGSGFSFSSYGMNWVRQAPGKGLEWVASISPSGSYFYYADSVKGRFTISRDNSKNTLYLQMTSLRAEDTAIYYCARLPGFNPPFDHWGQGTLVTVSS
VL: DIQMTQSPSSLSASVGDRVTITCKASQNVGGNVDWYQWKPGKAPKLLIYGASNRYTGVPDRFRGSGSGTDFTLTISSLQPEDVATYYCLQYKNNPWTFGGGTKVEIK
modifications: humanized variable heavy chain H3; humanized variable light chain L3
Q: Which results are given for B1?
A: concentration saturating the epitope [1]: 20; TGF-β reporter activity [2]: significant reduction; cell proliferation/viability [3]: slight decrease; serum BUN [4]: non-significant but pronounced reduction; serum creatinine [4]: non-significant but pronounced reduction; binding to PECs CLDN1 [5]: binds to PECs CLDN1; concentration saturating the epitope [6]: 50 µg/mL
